The test concerns the target human factor Xa (Enzyme Research Laboratories, Inc.) (human, UniProt P00742 41-179; P00742 235-488, limits assumed). Put plainly: chromogenic FXa inhibition. The protocol: TBS-P buffer (50 mM Tris-Cl, pH 7.8, 200 mM NaCl, 0.05% (w/v) PEG-8000, 0.02% (w/v) NaN_3) was used for this assay. The IC$50$ was determined by combining in appropriate wells of a Costar half-area microtiter plate 25 μl human factor Xa (Enzyme Research Laboratories, Inc.; South Bend Ind.) in TBS-P; 40 μl 10% (v/v) DMSO in TBS-P (uninhibited control) or various concentrations of a peptide to be tested diluted in 10% (v/v) DMSO in TBS-P; and substrate S-2765 (Nα-benzyloxycarbonyl-D-Arg-Gly-L-Arg-p-nitroanilide; Kabi Pharmacia, Inc.; Franklin Ohio) in TBS-P.
The assays were performed by pre-incubating the peptide inhibitor plus enzyme for 10 min, then the assay was initiated by adding substrate to obtain a final volume of 100 μl. The initial velocity of chromogenic substrate hydrolysis was measured by the change in absorbance at 405 nm using a Bio-tek Instruments kinetic plate reader (Ceres UV900HDi) at 25° C. during the linear portion of the time course (usually 1–5 min after addition of substrate). The concentration of inhibitor that caused a 50% decrease in the rate of substrate hydrolysis was predicted by linear regression after plotting the relative rates of hydrolysis (compared to the uninhibited control) versus the log of the peptide concentration. The enzyme concentration was 0.5 nM and substrate concentration was 140 μM.

Starred links: 1 amine or outer side, 2 acyl side, 3 side chain; linkers in the order of their positions; H or OH if unused. Positions of bridges follow the written chain, without caps; N, C: chain ends. Non-standard residues stand in square brackets, D forms with d. Primed or numbered codes have the meaning given here. No end group written: not given here. *: point of attachment. Dab(Nγ-C3H7N)″ = 2,4-diaminobutyric acid with dimethylamidinium (N,N-dimethylformamidinium) on gamma-N, C[N+](C)=CNCC[C@H](N[*:1])C(=O)[*:2]; Dab(Nγ-C3H7N) = Dab bearing Nγ-dimethylamidinium (C3H7N), C[N+](C)=CNCC[C@H](N[*:1])C(=O)[*:2]; (iBu)Tyr = N-isobutyl-L-tyrosine, CC(C)CN([C@@H](Cc1ccc(O[*:3])cc1)C(=O)[*:2])[*:1]; Tyr(Me)″ = O-methyl-tyrosine (source: Y(Me)), COc1ccc(C[C@H](N[*:1])C(=O)[*:2])cc1; Thr(Me) = O-methyl-threonine (source: T(Me)), CO[C@H](C)[C@H](N[*:1])C(=O)[*:2]; Cys(Me) = S-methylcysteine (source: C(Me)), CSC[C@H](N[*:1])C(=O)[*:2]; Pen(Me) = S-methyl-penicillamine, CSC(C)(C)[C@H](N[*:1])C(=O)[*:2]; Tyr(Me) = O-methyltyrosine, COc1ccc(C[C@H](N[*:1])C(=O)[*:2])cc1; Orn(Nδ-C3H7N) = ornithine with dimethylamidinium on delta-N; Phe(4-NO2) = N[C@@H](Cc1ccc([N+](=O)[O-])cc1)C(=O)O; Phe(4-CONH2) = NC(=O)c1ccc(C[C@H](N)C(=O)O)cc1; Phe(4-NH2) = Nc1ccc(C[C@H](N)C(=O)O)cc1; Phe(4-F) = N[C@@H](Cc1ccc(F)cc1)C(=O)O; 2Nal = N[C@@H](Cc1ccc2ccccc2c1)C(=O)O; NMeY = CN[C@@H](Cc1ccc(O)cc1)C(=O)O; dNMeY = CN[C@H](Cc1ccc(O)cc1)C(=O)O; hArg = N=C(N)NCCCC[C@H](N)C(=O)O; Cha = N[C@@H](CC1CCCCC1)C(=O)O; Agb = N=C(N)NCC[C@H](N)C(=O)O; Chg = N[C@H](C(=O)O)C1CCCCC1; Phg = N[C@H](C(=O)O)c1ccccc1; Pth = not defined here; pal = not defined here; Tfa = O=C(C(F)(F)F)*; Isobutyl = CC(C)C*; βAla = NCCC(=O)O; tBu = CC(C)(C)*

For orientation: Ki means the equilibrium dissociation constant of an inhibitor or competing ligand from its target.

Sequence of human factor Xa (Enzyme Research Laboratories, Inc.) (P00742 41-179 limits assumed, chain 1 of 2): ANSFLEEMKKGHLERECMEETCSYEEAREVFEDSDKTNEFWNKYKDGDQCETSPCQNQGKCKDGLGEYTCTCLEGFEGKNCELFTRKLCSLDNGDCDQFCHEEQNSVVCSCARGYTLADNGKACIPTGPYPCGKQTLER
Sequence of human factor Xa (Enzyme Research Laboratories, Inc.) (P00742 235-488 limits assumed, chain 2 of 2): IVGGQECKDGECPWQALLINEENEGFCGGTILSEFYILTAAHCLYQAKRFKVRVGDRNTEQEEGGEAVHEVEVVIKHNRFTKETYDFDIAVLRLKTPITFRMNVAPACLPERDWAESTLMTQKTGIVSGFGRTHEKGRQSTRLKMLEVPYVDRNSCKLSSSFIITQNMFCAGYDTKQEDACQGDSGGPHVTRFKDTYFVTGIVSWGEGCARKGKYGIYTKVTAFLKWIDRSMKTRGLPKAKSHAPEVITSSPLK

B1: Ac-βAla-Y-I-R-L-G-NH2 (peptide)
peptide: Ac-[βAla]YIRLG-NH2
SMILES: CC[C@H](C)[C@H](NC(=O)[C@H](Cc1ccc(O)cc1)NC(=O)CCNC(C)=O)C(=O)N[C@@H](CCCNC(=N)N)C(=O)N[C@@H](CC(C)C)C(=O)NCC(N)=O
Turning to B1, the Ki is less than 100 µM. Pth-YIRLP-NH2 (reading uncertain; also: printed as Pth-Y-I-R-L-P-NH2) [Pth-Y-I-R-L-P-NH2] displayed a Ki of less than 100 µM. The same measure for Ac-EYIRLPK-NH2 (also: cyclisation unknown (underlining lost), may be cyclic; underlining lost) [Ac-E-Y-I-R-L-P-K-NH2]: less than 100 µM; for Ac-[(iBu)Tyr]I[Orn(Nδ-C3H7N)]LP-NH2 [Ac-(iBu)Y-I-Orn(N^δ-C3H7N)-L-P-NH2]: less than 100 µM; for Ac-[(iBu)Tyr]I[Dab(Nγ-C3H7N)″]LP-NH2 [Ac-(iBu)Y-I-Dab(N^γ-C3H7N)-L-P-NH2]: less than 100 µM.

B2: Ac-Y-I-nR-L-A-NH2 (peptide)
peptide: Ac-YI[Agb]LA-NH2
SMILES: CC[C@H](C)[C@H](NC(=O)[C@H](Cc1ccc(O)cc1)NC(C)=O)C(=O)N[C@@H](CCNC(=N)N)C(=O)N[C@@H](CC(C)C)C(=O)N[C@@H](C)C(N)=O
Take B2: the Ki is less than 100 µM.

B3: Ac-Y-I-hR-L-A-NH2 (peptide)
peptide: Ac-YI[hArg]LA-NH2
SMILES: CC[C@H](C)[C@H](NC(=O)[C@H](Cc1ccc(O)cc1)NC(C)=O)C(=O)N[C@@H](CCCCNC(=N)N)C(=O)N[C@@H](CC(C)C)C(=O)N[C@@H](C)C(N)=O
With B3, the inhibitory constant (Ki) is less than 100 µM.

B4: y-I-(nR)-L-A-NH2 (peptide)
peptide: [dY]I[Agb]LA-NH2
modifications: N-terminus assumed
SMILES: CC[C@H](C)[C@H](NC(=O)[C@H](N)Cc1ccc(O)cc1)C(=O)N[C@@H](CCNC(=N)N)C(=O)N[C@@H](CC(C)C)C(=O)N[C@@H](C)C(N)=O
B4 yielded a Ki of less than 100 µM.

B5: Ac-Y-I-Dab(N^γC3H7N)-L-A-NH2 (peptide)
peptide: Ac-YI[Dab(Nγ-C3H7N)]LA-NH2
SMILES: CC[C@H](C)[C@H](NC(=O)[C@H](Cc1ccc(O)cc1)NC(C)=O)C(=O)N[C@@H](CCNC=[N+](C)C)C(=O)N[C@@H](CC(C)C)C(=O)N[C@@H](C)C(N)=O
As to B5, the Ki was less than 100 µM.

For the molecule XIRLP (N-term Ac; N-(trans-CH3-CH═C(CH3)-CH2) on Y1; C-term NH2) [Ac-(trans-CH3-CH═C(CH3)-CH2)Y-I-R-L-P-NH2], the Ki is less than 100 µM. The same measure for Ac-[NMeY][Chg]RLP-NH2 [Ac-(Me)Y-Chg-R-L-P-NH2]: less than 100 µM.

In the case of Ac-[(iBu)Tyr][Chg]RLP-NH2 [Ac-(iBu)Y-Chg-R-L-P-NH2], the Ki is less than 100 µM. As for Ac-Y[Cha]RLP-NH2 [Ac-Y-Cha-R-L-P-NH2], the figure is less than 100 µM. As for Ac-Y[Thr(Me)]RLP-NH2 [Ac-Y-T(Me)-R-L-P-NH2], the figure is less than 100 µM; as for YXRLP (N-term Ac; residue 2 = allo-Ile; C-term NH2) [Ac-Y-(allo-I)-R-L-P-NH2], less than 100 µM. The same measure for Ac-Y[Phg]RLP-NH2 [Ac-Y-Pgl-R-L-P-NH2]: less than 100 µM; for Ac-Y[Pen(Me)]RLP-NH2 [Ac-Y-Pen(Me)-R-L-P-NH2]: less than 100 µM; for XIRLP (N-term Ac; N-(Me) on Y1; C-term NH2) [Ac-(Me)Y-I-R-L-P-NH2]: less than 100 µM.

Take XIRLP (N-term Ac; Y1=Tyr(3,5-NO2); C-term NH2) [Ac-Tyr(3,5-NO2)-I-R-L-P-NH2]: the Ki is less than 100 µM.

Isobutyl-YIRLA-NH2 [(iBu)Y-I-R-L-A-NH2]: the Ki is less than 100 µM.

B6: Nal(2)-I-R-C(Me)-P-NH2 (peptide)
peptide: [2Nal]IR[Cys(Me)]P-NH2
modifications: N-terminus assumed
SMILES: CC[C@H](C)[C@H](NC(=O)[C@@H](N)Cc1ccc2ccccc2c1)C(=O)N[C@@H](CCCNC(=N)N)C(=O)N[C@@H](CSC)C(=O)N1CCC[C@H]1C(N)=O
Regarding B6, the Ki is less than 100 µM.

B7: F(pNH2)-I-R-L-A-NH2 (peptide)
peptide: [Phe(4-NH2)]IRLA-NH2
modifications: N-terminus assumed
SMILES: CC[C@H](C)[C@H](NC(=O)[C@@H](N)Cc1ccc(N)cc1)C(=O)N[C@@H](CCCNC(=N)N)C(=O)N[C@@H](CC(C)C)C(=O)N[C@@H](C)C(N)=O
On to B7, for which the Ki is less than 100 µM.

B8: F(pNO2)-I-R-L-A-NH2 (peptide)
peptide: [Phe(4-NO2)]IRLA-NH2
modifications: N-terminus assumed
SMILES: CC[C@H](C)[C@H](NC(=O)[C@@H](N)Cc1ccc([N+](=O)[O-])cc1)C(=O)N[C@@H](CCCNC(=N)N)C(=O)N[C@@H](CC(C)C)C(=O)N[C@@H](C)C(N)=O
Turning to B8, the Ki was less than 100 µM.

B9: pal-I-R-C(SBut)-P-NH2 (peptide)
peptide: [pal]IRC(tBu)P-NH2
modifications: reading uncertain; also: pyridylalanine ring position not given here, printed as pal-I-R-C(SBut)-P-NH2
B9 returned a Ki of less than 100 µM.

B10: Ac-(Me)Y-I-R-L-A-NH2 (peptide)
peptide: Ac-[NMeY]IRLA-NH2
SMILES: CC[C@H](C)[C@H](NC(=O)[C@H](Cc1ccc(O)cc1)N(C)C(C)=O)C(=O)N[C@@H](CCCNC(=N)N)C(=O)N[C@@H](CC(C)C)C(=O)N[C@@H](C)C(N)=O
Turning to B10, the Ki is less than 100 µM.

B11: Tyr(Me)-I-R-L-A-NH2 (peptide)
peptide: [Tyr(Me)]IRLA-NH2
modifications: N-terminus assumed
SMILES: CC[C@H](C)[C@H](NC(=O)[C@@H](N)Cc1ccc(OC)cc1)C(=O)N[C@@H](CCCNC(=N)N)C(=O)N[C@@H](CC(C)C)C(=O)N[C@@H](C)C(N)=O
Molecule B11 showed an inhibitory constant (Ki) of less than 100 µM.

B12: Ac-Y(Me)-I-R-L-A-NH2 (peptide)
peptide: Ac-[Tyr(Me)″]IRLA-NH2
SMILES: CC[C@H](C)[C@H](NC(=O)[C@H](Cc1ccc(OC)cc1)NC(C)=O)C(=O)N[C@@H](CCCNC(=N)N)C(=O)N[C@@H](CC(C)C)C(=O)N[C@@H](C)C(N)=O
B12 registered a Ki of less than 100 µM.

B13: Tfa-(Me)Y-I-R-L-A-NH2 (peptide)
peptide: Tfa-[NMeY]IRLA-NH2
SMILES: CC[C@H](C)[C@H](NC(=O)[C@H](Cc1ccc(O)cc1)N(C)C(=O)C(F)(F)F)C(=O)N[C@@H](CCCNC(=N)N)C(=O)N[C@@H](CC(C)C)C(=O)N[C@@H](C)C(N)=O
B13: the Ki was less than 100 µM.

B14: pal-C(SBut)-R-L-P-NH2 (peptide)
peptide: [pal]C(tBu)RLP-NH2
modifications: reading uncertain; also: pyridylalanine ring position not given here, printed as pal-C(SBut)-R—L—P—NH2
On to B14, for which the Ki is less than 100 µM.

B15: Ac-F(pF)-I-R-L-P-NH2 (peptide)
peptide: Ac-[Phe(4-F)]IRLP-NH2
SMILES: CC[C@H](C)[C@H](NC(=O)[C@H](Cc1ccc(F)cc1)NC(C)=O)C(=O)N[C@@H](CCCNC(=N)N)C(=O)N[C@@H](CC(C)C)C(=O)N1CCC[C@H]1C(N)=O
The molecule B15 returned a Ki of less than 100 µM.

B16: Ac-E-Y-I-R-L-K-NH2** (peptide)
peptide: Ac-EYIRLK-NH2
modifications: lactam 1-6
SMILES: CC[C@H](C)[C@@H]1NC(=O)[C@H](Cc2ccc(O)cc2)NC(=O)[C@@H](NC(C)=O)CCC(=O)NCCCC[C@@H](C(N)=O)NC(=O)[C@H](CC(C)C)NC(=O)[C@H](CCCNC(=N)N)NC1=O
notes: underlining that marks the cyclized portion is lost in the text
B16 yielded a Ki of less than 100 µM. Ac-YIRLP-NH2 [Ac-Y-I-R-L-P-NH2] had a Ki of less than 100 µM. The same measure for Ac-YIRLA (printed without -NH2) [Ac-Y-I-R-L-A]: less than 100 µM.

B17: (Me)y-I-R-L-A-NH2 (peptide)
peptide: [dNMeY]IRLA-NH2
modifications: N-terminus assumed
SMILES: CC[C@H](C)[C@H](NC(=O)[C@@H](Cc1ccc(O)cc1)NC)C(=O)N[C@@H](CCCNC(=N)N)C(=O)N[C@@H](CC(C)C)C(=O)N[C@@H](C)C(N)=O
Regarding B17, the Ki was less than 100 µM.

In the case of Ac-YIRIP [Ac-Y-I-R-I-P], the Ki is less than 100 µM.

B18: Ac-F(pCONH2)-I-R-L-P-NH2 (peptide)
peptide: Ac-[Phe(4-CONH2)]IRLP-NH2
SMILES: CC[C@H](C)[C@H](NC(=O)[C@H](Cc1ccc(C(N)=O)cc1)NC(C)=O)C(=O)N[C@@H](CCCNC(=N)N)C(=O)N[C@@H](CC(C)C)C(=O)N1CCC[C@H]1C(N)=O
As for B18, the Ki was less than 100 µM.

The record behind these values is patent US6759384 (AVENTIS PHARMACEUTICALS, dated 2004).
